Data taken from publication PMC12112590, “NDF/GLYR1 Promotes RNA Polymerase II Processivity via Pol II Binding and Nucleosome Destabilization” (International Journal of Molecular Sciences, 2025).

Molecular target: T1, Rpb1 subunit of yeast Pol II (S. cerevisiae, UniProt P04050 1-1733)
T1 construct: Rpb1, largest subunit of S. cerevisiae RNA polymerase II; identified as the labelled band after SDS-PAGE; source: subunit within purified S. cerevisiae Pol II
Experiment: proximity labelling; in vitro biotinylation (BioID): 0-8 pmol hNDF-BirA* with 25 pmol yPol II in 20 μL; 20 mM HEPES pH 7.5, 10 mM MgCl2, 100 mM KCl, 1.5 mM ATP, 5% glycerol, 0.5 μM biotin; 30 °C, 1 h; SDS-PAGE and streptavidin-HRP blot
Conditions: both partners purified

T1 sequence (P04050 whole entry): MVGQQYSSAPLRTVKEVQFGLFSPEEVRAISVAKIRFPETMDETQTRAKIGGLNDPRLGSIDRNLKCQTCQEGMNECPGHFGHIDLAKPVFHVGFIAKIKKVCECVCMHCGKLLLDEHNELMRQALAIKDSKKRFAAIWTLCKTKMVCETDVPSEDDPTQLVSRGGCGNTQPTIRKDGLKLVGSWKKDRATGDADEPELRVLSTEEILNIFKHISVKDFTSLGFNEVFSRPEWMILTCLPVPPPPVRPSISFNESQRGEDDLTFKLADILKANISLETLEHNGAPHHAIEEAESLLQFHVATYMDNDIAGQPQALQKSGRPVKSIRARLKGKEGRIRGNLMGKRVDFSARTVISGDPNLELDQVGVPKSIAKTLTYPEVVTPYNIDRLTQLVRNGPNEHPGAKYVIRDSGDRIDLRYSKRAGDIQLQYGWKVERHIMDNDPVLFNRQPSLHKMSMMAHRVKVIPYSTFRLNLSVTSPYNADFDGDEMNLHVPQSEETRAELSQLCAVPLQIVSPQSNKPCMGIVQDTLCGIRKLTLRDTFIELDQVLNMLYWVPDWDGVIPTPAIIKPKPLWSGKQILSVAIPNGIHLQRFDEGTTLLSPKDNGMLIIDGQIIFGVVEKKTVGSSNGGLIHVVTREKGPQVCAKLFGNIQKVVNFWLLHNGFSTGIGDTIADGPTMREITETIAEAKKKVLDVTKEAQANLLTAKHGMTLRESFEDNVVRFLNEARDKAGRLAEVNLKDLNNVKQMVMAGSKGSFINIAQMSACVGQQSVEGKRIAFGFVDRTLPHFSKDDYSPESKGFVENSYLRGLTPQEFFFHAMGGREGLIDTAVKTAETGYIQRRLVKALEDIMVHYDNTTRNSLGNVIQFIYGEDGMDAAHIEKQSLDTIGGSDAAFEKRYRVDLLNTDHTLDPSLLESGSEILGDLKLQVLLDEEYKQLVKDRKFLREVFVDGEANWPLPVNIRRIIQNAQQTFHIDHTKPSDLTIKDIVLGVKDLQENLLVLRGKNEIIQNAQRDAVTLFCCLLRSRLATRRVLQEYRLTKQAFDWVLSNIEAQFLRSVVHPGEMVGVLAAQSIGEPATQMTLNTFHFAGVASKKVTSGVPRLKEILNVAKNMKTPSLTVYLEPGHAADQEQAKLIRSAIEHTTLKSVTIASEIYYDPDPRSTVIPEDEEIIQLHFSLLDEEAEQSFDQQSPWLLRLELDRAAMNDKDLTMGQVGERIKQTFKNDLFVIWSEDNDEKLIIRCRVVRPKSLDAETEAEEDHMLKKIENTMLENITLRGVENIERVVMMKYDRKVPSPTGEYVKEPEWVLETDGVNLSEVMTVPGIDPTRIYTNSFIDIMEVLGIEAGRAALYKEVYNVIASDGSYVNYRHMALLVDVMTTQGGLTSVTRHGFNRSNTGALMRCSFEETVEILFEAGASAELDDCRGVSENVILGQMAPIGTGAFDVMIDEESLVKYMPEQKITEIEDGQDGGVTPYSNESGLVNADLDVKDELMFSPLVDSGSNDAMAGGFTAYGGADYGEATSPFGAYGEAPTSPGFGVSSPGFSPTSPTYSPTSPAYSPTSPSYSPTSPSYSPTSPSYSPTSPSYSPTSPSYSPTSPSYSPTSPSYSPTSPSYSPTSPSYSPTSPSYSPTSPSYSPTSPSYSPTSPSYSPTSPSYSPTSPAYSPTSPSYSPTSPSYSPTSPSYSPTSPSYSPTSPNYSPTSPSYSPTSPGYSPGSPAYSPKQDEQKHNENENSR

binding result: binds
B1: BirA*-hNDF fusion protein (natural protein, human, UniProt Q49A26 1-553, looked up)
chain: MAAVSLRLGDLVWGKLGRYPPWPGKIVNPPKDLKKPRGKKCFFVKFFGTEDHAWIKVEQLKPYHAHKEEMIKINKGKRFQQAVDAVEEFLRRAKGKDQTSSHNSSDDKNRRNSSEERSRPNSGDEKRKLSLSEGKVKKNMGEGKKRVSSGSSERGSKSPLKRAQEQSPRKRGRPPKDEKDLTIPESSTVKGMMAGPMAAFKWQPTASEPVKDADPHFHHFLLSQTEKPAVCYQAITKKLKICEEETGSTSIQAADSTAVNGSITPTDKKIGFLGLGLMGSGIVSNLLKMGHTVTVWNRTAEKCDLFIQEGARLGRTPAEVVSTCDITFACVSDPKAAKDLVLGPSGVLQGIRPGKCYVDMSTVDADTVTELAQVIVSRGGRFLEAPVSGNQQLSNDGMLVILAAGDRGLYEDCSSCFQAMGKTSFFLGEVGNAAKMMLIVNMVQGSFMATIAEGLTLAQVTGQSQQTLLDILNQGQLASIFLDQKCQNILQGNFKPDFYLKYIQKDLRLAIALGDAVNHPTPMAAAANEVYKRAKALDQSDNDMSAVYRAYIH
notes: human NDF / GLYR1 fused to the promiscuous biotin ligase BirA*; The name is printed in both orders (BirA*-hNDF, hNDF-BirA*); the construct's name puts BirA* before hNDF; also called hNDF-BirA*; hNDF-BirA; source: pET21b-N-His6-BirA*-hNDF expression construct, purified as previously described [44]; not shown: BirA* (promiscuous biotin ligase), N-terminal, kept
